T1: human tapasin, lumenal domain (Gly1-Glu381), as used in the SPR experiments with the PaSta Fabs (Homo sapiens (human))
T1 construct: human tapasin, lumenal domain, residues Gly1 to Glu381; the construct encodes the signal peptide too, the protein is secreted; for the SPR with the Fabs nothing is said; also called TPN; source: Drosophila S2 cells, purified from culture medium (chelate agarose, SEC, anion exchange)
T1 chain: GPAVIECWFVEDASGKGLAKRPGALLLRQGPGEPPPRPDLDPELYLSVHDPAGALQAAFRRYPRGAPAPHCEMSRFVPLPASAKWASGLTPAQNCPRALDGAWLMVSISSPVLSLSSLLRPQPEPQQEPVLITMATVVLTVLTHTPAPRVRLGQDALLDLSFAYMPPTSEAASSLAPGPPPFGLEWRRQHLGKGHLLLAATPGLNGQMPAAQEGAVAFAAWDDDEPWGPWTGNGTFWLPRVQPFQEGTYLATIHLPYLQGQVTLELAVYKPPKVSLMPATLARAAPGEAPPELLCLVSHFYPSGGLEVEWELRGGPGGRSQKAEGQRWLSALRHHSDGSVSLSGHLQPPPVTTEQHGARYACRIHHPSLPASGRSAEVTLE


Tests used:
Settings in all cases: both partners purified
[1] = target: T1, human tapasin, lumenal domain …; assay: SPR; PaSta2 Fab (panel c) or PaSta1 Fab (panel d) immobilised on a CM5 chip, tapasin captured on it, the other Fab injected at 62.5 to 4000 nM; fit to a 1:1 binding model (BiaEval 3.1); 25 °C, 10 mM HEPES pH 7.4, 150 mM NaCl, 3 mM EDTA, 0.05% Surfactant P20, 30 µL/min
[2] = target: T2, human tapasin lumenal domain (Gly1-Glu381), state of the C-terminal tags not stated (human, UniProt O15533); assay: SPR; Fab of PaSta1 or PaSta2 covalently coupled onto CM5 chips (about 200 RU); tapasin 0.06 µM to 4 µM injected; 25 °C; 10 mM HEPES pH 7.4, 150 mM NaCl, 3 mM EDTA, 0.05% Surfactant P20; 30 µL/min; 1:1 binding model
T2 construct: Tapasin as injected over the Fab surfaces in SPR and as added in the NMR experiments; source: Drosophila S2 cells, purified from the culture media (chelate agarose, SEC, anion exchange)

[3] = target: T3, human tapasin lumenal domain (Gly1-Glu381), BirA and 6X His sequences removed with 3C protease (human, UniProt O15533); assay: crystal structure; tapasin–PaSta2 Fab complex, PDB 7TUG, 3.9 Å; crystals grown in 17% PEG 10000, 0.1 M Bis-Tris, pH 5.5, 0.1 M Am acetate
T3 construct: Residues of the 3C site may remain at the C-terminus after cleavage; source: Drosophila S2 cells, purified from the culture media (chelate agarose, SEC, anion exchange), treated with 3C protease; not shown: 6X HIS, C-terminal, cleaved

[4] = target: parental HLA-B*44:05 refolded with hβ2m and the peptide … (human | ); assay: SPR; biotinylated tapasin captured (200 RU) on a streptavidin chip; MHC-I offered in graded concentrations (15.6 nM to 500 nM for B44:02–9mer and B44:05-T73C–6mer, 1 µM to 16 µM for B44:05–9mer); 25 °C; 10 mM HEPES pH 7.4, 150 mM NaCl, 3 mM EDTA, 0.05% Surfactant P20; 30 µL/min; global fit to a 1:1 binding model; n = 3
[5] = target: T3, human tapasin lumenal domain …; assay: crystal structure; tapasin–PaSta1 Fab complex, PDB 7TUF, 2.8 Å; crystals grown in 10% PEG 4000, 0.1 M Hepes, pH 7.5

Row | Kd [1] | binding result [2] | Binder | further results
1 | 1.6 nM |  | PaSta2 Fab (anti-tapasin monoclonal antibody PaSta2) (Fab, V domains shown, heavy chain of the Fab in PDB 7TUG and 7TUH (ends after the second cysteine of the hinge, then His6); light chain of the Fab in PDB 7TUG and 7TUH; also called Pt2; Pt2H; source: Expi293F, transfected, purified from culture supernatant (TALON, SEC)) VH: QVQLQQSGAELVRPGTSVKMSCKAAGYTFTNYWIGWIKQRPGHGLEWIGDIYPGGGYTNYNEKFKVKATLTADTSSVTAYMQLSSLTSEDSAIYYCTREGNYGFAYWGQGTLVTVSA VL: not shown | 
2 |  | binds | Fab fragment of the anti-tapasin monoclonal antibody PaSta2 (Fab, V domains shown, H chain of PaSta2 in PDB 7TUG and 7TUH (deposited here); the Fab H chain ends after the second cysteine in the hinge region, followed by the 6X HIS tag; L chain of PaSta2 in PDB 7TUG and 7TUH (deposited here); also called PaSta2 (Fab); Pt2; source: Expi293F cells, transfected, purified from culture supernatants (TALON, SEC)) VH: QVQLQQSGAELVRPGTSVKMSCKAAGYTFTNYWIGWIKQRPGHGLEWIGDIYPGGGYTNYNEKFKVKATLTADTSSVTAYMQLSSLTSEDSAIYYCTREGNYGFAYWGQGTLVTVSA VL: not shown | binding result [3]: binds
3 |  |  | human tapasin lumenal domain (Gly1-Glu381), biotinylated at its C-terminal BirA sequence (domain or fragment, UniProt O15533 21-401, looked up, biotin at the C-terminal BirA sequence, Tapasin as captured on the streptavidin chip for SPR; also called biotinylated tapasin; source: Drosophila S2 cells, purified from the culture media (chelate agarose, SEC, anion exchange)) GPAVIECWFVEDASGKGLAKRPGALLLRQGPGEPPPRPDLDPELYLSVHDPAGALQAAFRRYPRGAPAPHCEMSRFVPLPASAKWASGLTPAQNCPRALDGAWLMVSISSPVLSLSSLLRPQPEPQQEPVLITMATVVLTVLTHTPAPRVRLGQDALLDLSFAYMPPTSEAASSLAPGPPPFGLEWRRQHLGKGHLLLAATPGLNGQMPAAQEGAVAFAAWDDDEPWGPWTGNGTFWLPTVQPFQEGTYLATIHLPYLQGQVTLELAVYKPPKVSLMPATLARAAPGEAPPELLCLVSHFYPSGGLEVEWELRGGPGGRSQKAEGQRWLSALRHHSDGSVSLSGHLQPPPVTTEQHGARYACRIHHPSLPASGRSAEVTLE | Kd [4]: 1310 nM
4 | 1.1 nM |  | PaSta1 Fab (anti-tapasin monoclonal antibody PaSta1) (Fab, V domains shown, heavy chain of the Fab in PDB 7TUF (ends after the second cysteine of the hinge, then His6); light chain of the Fab in PDB 7TUF; also called Pt1; Pt1H; source: Expi293F, transfected, purified from culture supernatant (TALON, SEC)) VH: DVQLQESGPGLVIPSQSLSLTCTVTGYSITTDYAWNWIRQFPGNRLEWMGYISSSGVTVYNPSLKSRISITRDTSKNQFFLQLISVTTEDTATYYCARRGYYRYDSIDYWGQGTTLTVSS VL: QIVLSQSPAILSASPGEKVTMTCRATSSVSYIHWYQQKPGSSPKPWIYATSSLTSGVPVRFSGSGSGTSYSLTISRVEAEDAATYYCQQWSSNPPTFGGGTKLEIK | 
5 |  | binds | Fab fragment of the anti-tapasin monoclonal antibody PaSta1 (Fab, V domains shown, H chain of PaSta1 in PDB 7TUF (deposited here); the Fab H chain ends after the second cysteine in the hinge region, followed by the 6X HIS tag; L chain of PaSta1 in PDB 7TUF (deposited here); The L chain search model had VL and Cκ; also called PaSta1 (Fab); Pt1; source: Expi293F cells, transfected, purified from culture supernatants (TALON, SEC)) VH: DVQLQESGPGLVIPSQSLSLTCTVTGYSITTDYAWNWIRQFPGNRLEWMGYISSSGVTVYNPSLKSRISITRDTSKNQFFLQLISVTTEDTATYYCARRGYYRYDSIDYWGQGTTLTVSS VL: QIVLSQSPAILSASPGEKVTMTCRATSSVSYIHWYQQKPGSSPKPWIYATSSLTSGVPVRFSGSGSGTSYSLTISRVEAEDAATYYCQQWSSNPPTFGGGTKLEIK | binding result [5]: binds
